Measurements reported in patent US20190136256.

Target: T1, Myc tagged AN (AN-Myc)
T1 chain: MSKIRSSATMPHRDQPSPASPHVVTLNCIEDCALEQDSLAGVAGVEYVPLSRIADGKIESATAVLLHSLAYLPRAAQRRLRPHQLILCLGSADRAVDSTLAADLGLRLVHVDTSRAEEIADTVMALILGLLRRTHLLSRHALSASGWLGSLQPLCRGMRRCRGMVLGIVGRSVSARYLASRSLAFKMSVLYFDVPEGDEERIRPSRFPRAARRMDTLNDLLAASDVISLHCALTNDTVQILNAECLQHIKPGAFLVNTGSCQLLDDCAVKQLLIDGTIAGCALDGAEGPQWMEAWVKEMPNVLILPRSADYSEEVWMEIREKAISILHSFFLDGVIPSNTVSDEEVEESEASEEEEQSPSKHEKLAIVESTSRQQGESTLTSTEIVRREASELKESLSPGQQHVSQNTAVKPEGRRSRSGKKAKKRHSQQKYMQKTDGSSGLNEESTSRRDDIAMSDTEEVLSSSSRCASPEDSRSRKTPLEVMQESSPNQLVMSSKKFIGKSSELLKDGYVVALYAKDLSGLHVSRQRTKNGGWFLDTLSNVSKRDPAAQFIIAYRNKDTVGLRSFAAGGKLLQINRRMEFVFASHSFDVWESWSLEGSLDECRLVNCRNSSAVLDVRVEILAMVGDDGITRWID

B1: HA-tagged TDP1 (HA-TDP1) (protein)
chain: MAHSQVAYLIPLKADLKEDNSSPRITLSEGPNIIGRGNVSIVDKRLSRKHITIIVSTSGSASLSVDGTNPVVIRSSGDGERKKVKPSEEVSVCNDDLIELIPGHHFFKLVLLNGRAAKKARKAEDDVEAIRRFCPPNEKLPSTFRLLSVDALPDWANTSCVSINDVIEGDVVAAILSNYMVDIDWLMSACPKLANIPQVMVIHGEGDGRQEYIQRKKPANWILHKPRLPISFGTHHSKAIFLVYPRGVRVVVHTANLIHVDWNNKSQGLWMQDFPWKDDDKDPPKGCGFEGDLIDYLNVLKWPEFTANLPGRGNVKINAAFFKKFDYSDATVRLIASVPGYHTGFNLNKWGHMKLRTILQECIFDREFRRSPLIYQFSSLGSLDEKWLAEFGNSLSSGITEDKTPLGPGDSLIIWPTVEDVRCSLEGYAAGNAIPSPLKNVEKPFLKKYWARWKADHSARGRAMPHIKTFTRYNDQKIAWFLLTSSNLSKAAWGALQKNNSQLMIRSYELGVLFLPSPIKTQGCVFSCTESNPSVMKAKQETKDEVEKRSKLVTMTWQGDRDLPEIISLPVPYQLPPKPYSPEDVPWSWDRGYSKKDVYGQVWPR
  µChIP-qPCR: association of AN with MYB46 promoter: the chromatin association of AN with MYB46 promoter was significantly increased (p<0.05) in vivo when co-expressed with TDP1
